Assay [1] concerns the target talin (human) (UniProt Q9Y490). Nature of the assay: FRAP on a spinning disk confocal microscope.
The target in assay [2] is talin (human) (UniProt Q9Y490). In words: FRAP on a TIRF microscope.
Assay [3] addresses talin (human) (UniProt Q9Y490). Nature of the assay: TIRF microscopy of recruitment to a protein-micropatterned surface.

Broadly, the koff is the rate constant with which the complex falls apart. With “EGFP-vinculin 1-851 (Vh) (from UniProt P18206 1-851) (domain or fragment)”, the koff with talin (human) [1] is 0.0029 s⁻¹; with talin (human) [2] it was 0.0033 s⁻¹; with talin (human) [3], 0.0034 s⁻¹.
